Assay [1] deals with Ectodomain of RSV F (1-513) - DScav mutations - Foldon SSM (Respiratory Syncytial virus). Description: ELISA, printed as affinity (FIG. 1C).
Assay [2] addresses Ectodomain of RSV F (1-520) - DScav mutations - HIV GP160-based SSM (Respiratory Syncytial virus). Briefly: ELISA, printed as affinity (FIG. 1C). On the technique in general: An ELISA detects its analyte on a solid surface through an enzyme-linked reagent.
Assay [3] addresses Ectodomain of RSV F (1-520) - HIV GP160-based SSM (Respiratory Syncytial virus). Briefly: ELISA, printed as affinity (FIG. 1A).
Assay [4] addresses Ectodomain of RSV F (1-513) - DScav mutations - Foldon SSM (Respiratory Syncytial virus). Briefly: ELISA, printed as affinity (FIG. 1B).
Assay [5] deals with Ectodomain of RSV F (1-520) - DScav mutations - HIV GP160-based SSM (Respiratory Syncytial virus). Description: ELISA, printed as affinity (FIG. 1B).

Two substances from patent US20220127309A1 can be followed below.

A word on the Kd: it is a measure of binding affinity in units of concentration. High values mean lower affinity, low ones higher affinity. Take “Broadly cross-neutralizing, prefusion specific monoclonal antibody MPE8”: the figures for the Kd in assay [1] and in assay [2] were 10.8 nM and 7.6 nM, respectively.

In the case of “Prefusion specific monoclonal antibody D25”, the Kd turned out to be 23.4 nM in assay [3], 1.3 nM in assay [4] and 1.2 nM in assay [5].
